# IntAct's records for PubMed 23932588
# B1: Tyrosine-protein phosphatase non-receptor type 5 (Mus musculus), P54830-1 (parent)
# chain: MCCSERLLGLPQPVEMEAPDEAEGLPSKQKEMPPPPPPSPPSEPAQKLPPQGAGSHSLTVRSSLCLFAASQFLLACGVLWLSGHGHSWLQNTTDLISSSLTVLNHLGPVAWLGSGTWGIPSLLLVSLTVSLVIVTTLVWHLLKAPPEPPAPLPPEDRRQSVSRQPSFTYSEWMEEKVEDDFLDLDAVPETPVFDCVMDIKPETDPASLTVKSMGLQERRGSNVSLTLDMCTPGCNEEGFGYLVSPREESAHEYLLSASRVLRAEELHEKALDPFLLQAEFFEIPMNFVDPKEYDIPGLVRKNRYKTILPNPHSRVRLTSPDPEDPLSSYINANYIRGYSGEEKVYIATQGPIVSTVADFWRMVWQERTPIIVMITNIEEMNEKCTEYWPEEQVVHDGVEITVQKVIHTEDYRLRLISLRRGTEERSLKHYWFTSWPDQKTPDRAPPLLHLVREVEEAAQQEGPHCSPIIVHCSAGIGRTGCFIATSICCQQLRREGVVDILKTTCQLRQDRGGMIQTCEQYQFVHHAMSLYEKQLSLQSSE
# Variants of: B1
# Conditions: with MAPK14, Q16539-1
# Sequence of MAPK14, Q16539-1 (Q16539 whole entry): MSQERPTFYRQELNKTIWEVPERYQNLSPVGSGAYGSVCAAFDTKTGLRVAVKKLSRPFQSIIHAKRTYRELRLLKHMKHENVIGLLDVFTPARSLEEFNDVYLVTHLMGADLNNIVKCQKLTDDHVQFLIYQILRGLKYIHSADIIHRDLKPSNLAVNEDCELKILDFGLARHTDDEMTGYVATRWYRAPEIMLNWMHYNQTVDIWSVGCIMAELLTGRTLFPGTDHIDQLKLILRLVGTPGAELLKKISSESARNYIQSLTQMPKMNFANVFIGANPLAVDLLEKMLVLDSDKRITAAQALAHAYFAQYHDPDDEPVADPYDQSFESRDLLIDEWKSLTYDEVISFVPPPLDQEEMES
row,effect of a mutation on the interaction,Variant
1,decreasing interaction strength,MCCSERLLGLPQPVEMEAPDEAEGLPSKQKEMPPPPPPSPPSEPAQKLPPQGAGSHSLTVRSSLCLFAASQFLLACGVLWLSGHGHSWLQNTTDLISSSLTVLNHLGPVAWLGSGTWGIPSLLLVSLTVSLVIVTTLVWHLLKAPPEPPAPLPPEDRRQSVSRQPSFTYSEWMEEKVEDDFLDLDAVPETPVFDCVMDIKPETDPASLTVKSMGLQERRGSNVSLTLDMCTPGCNEEGFGYLVSPREESAHEYLLSASRVLRAEELHEKALDPFLLQAEFAEIPMNFVDPKEYDIPGLVRKNRYKTALPNPHSRVRLTSPDPEDPLSSYINANYIRGYSGEEKVYIATQGPIVSTVADFWRMVWQERTPIIVMITNIEEMNEKCTEYWPEEQVVHDGVEITVQKVIHTEDYRLRLISLRRGTEERSLKHYWFTSWPDQKTPDRAPPLLHLVREVEEAAQQEGPHCSPIIVHCSAGIGRTGCFIATSICCQQLRREGVVDILKTTCQLRQDRGGMIQTCEQYQFVHHAMSLYEKQLSLQSSE [F281A;I307A]
2,decreasing interaction strength,MCCSERLLGLPQPVEMEAPDEAEGLPSKQKEMPPPPPPSPPSEPAQKLPPQGAGSHSLTVRSSLCLFAASQFLLACGVLWLSGHGHSWLQNTTDLISSSLTVLNHLGPVAWLGSGTWGIPSLLLVSLTVSLVIVTTLVWHLLKAPPEPPAPLPPEDRRQSVSRQPSFTYSEWMEEKVEDDFLDLDAVPETPVFDCVMDIKPETDPASLTVKSMGLQERRGSNVSLTLDMCTPGCNEEGFGYLVSPREESAHEYLLSASRVLRAEELHEKALDPALLQAEFAEIPMNFVDPKEYDIPGLVRKNRYKTILPNPHSRVRLTSPDPEDPLSSYINANYIRGYSGEEKVYIATQGPIVSTVADFWRMVWQERTPIIVMITNIEEMNEKCTEYWPEEQVVHDGVEITVQKVIHTEDYRLRLISLRRGTEERSLKHYWFTSWPDQKTPDRAPPLLHLVREVEEAAQQEGPHCSPIIVHCSAGIGRTGCFIATSICCQQLRREGVVDILKTTCQLRQDRGGMIQTCEQYQFVHHAMSLYEKQLSLQSSE [F274A;F281A]
